# Laboratory results published in paper PMC7294632, “Structure-guided protein engineering increases enzymatic activities of the SGNH family esterases” (Biotechnology for Biofuels, 2020).
# B1: CrmE10 (Croceicoccus marinus) (protein)
# chain: MADGEAAGQQADAVMPTGPAIDVLAFGDSLFAGYRLDRDESYPARLQAALRERGLNVNVTNAGVSGDTTAAGLQRIDFVLDSMAGEPDLVLLELGANDMLRGLPAEEARRNLDTILQRLDQRDIPVMVYGMRAAPNLGGDYGRSFDSIFPDLADKYDAELVPFFIEPLIFDRSLVQQDQLHPTAQGVDAMVEQTVEQVEDRIDDL
# notes: expressed in E. coli BL21 (DE3) from pSMT3, N-terminal His-Sumo tag removed with ULP1; monomer in solution by MALS, domain-swapped dimer in crystal
# B2: AlinE4 (Altericroceibacterium indicum) (protein)
# chain: SMGESRVILAFGDSLFAGYGLDKGESYPAKLETALRSHGINARIINAGVSGDTTAAGLQRIKFVLDSQPDKPELAIVELGGNDLLRGLSPAEARQNLSGILEELQRRKIPILLMGMRAPPNLGAKYQREFDGIYPYLAEKYDAKLVPFFLEAVADRPDLIQKDHVHPTARGVEELVSATSNAVAKALPAKK
# notes: as for B1
# Tests used:
# purified protein [1] = substrate: CCCCCC(=O)Oc1ccc([N+](=O)[O-])cc1; experiment: purified protein; type: biochemical, Croceicoccus marinus; settings: 100 mM Tris-HCl pH 7.5, 20 °C, substrate 0.05-2 mM
# purified protein [2] = substrate: CCCC(=O)Oc1ccc([N+](=O)[O-])cc1; experiment: purified protein; type: biochemical, Altericroceibacterium indicum; settings: 100 mM Tris-HCl pH 7.5, 40 °C, substrate 0.05-2 mM
protein,measurement,setting,value
B1,Km,purified protein [1],160 µM
same,kcat,purified protein [1],29.4 s⁻¹
B2,Km,purified protein [2],100 µM
same,kcat,purified protein [2],25.8 s⁻¹
